Experimental data as given in patent US20120156198A1 (Hoffmann-La Roche, published 2012).
Numbering of substitutions follows the chain as printed.

T1: human IL-18Rα (IL-18R1) on human cells (KG-1 cells, PBMC, TH1-cultured T cells, whole blood) (human, UniProt Q13478 19-541)
T1 sequence: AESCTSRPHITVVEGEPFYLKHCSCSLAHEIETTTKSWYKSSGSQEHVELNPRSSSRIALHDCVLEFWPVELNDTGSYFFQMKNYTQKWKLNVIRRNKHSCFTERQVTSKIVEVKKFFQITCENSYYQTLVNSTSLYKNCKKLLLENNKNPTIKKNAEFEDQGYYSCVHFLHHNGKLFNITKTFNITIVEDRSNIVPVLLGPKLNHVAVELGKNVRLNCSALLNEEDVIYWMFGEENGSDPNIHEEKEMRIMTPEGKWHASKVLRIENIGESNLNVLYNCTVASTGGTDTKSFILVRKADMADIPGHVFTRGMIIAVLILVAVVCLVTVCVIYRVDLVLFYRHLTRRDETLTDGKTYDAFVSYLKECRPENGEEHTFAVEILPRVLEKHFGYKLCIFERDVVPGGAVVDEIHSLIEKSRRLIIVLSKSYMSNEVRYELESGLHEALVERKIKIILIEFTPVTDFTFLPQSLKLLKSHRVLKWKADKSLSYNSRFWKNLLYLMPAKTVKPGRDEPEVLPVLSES

T2: recombinant human IL-18Rα Fc chimera (R&D Systems, Cat. No. 816-LR) (human, UniProt Q13478 19-329)
T2 construct: Bought protein; also called hIL-18Rα (hFc-chimera R&D-Systems 816-LR); recombinant human IL-18Rα-Fc fusion protein; not shown: human Fc of the commercial chimera
T2 sequence: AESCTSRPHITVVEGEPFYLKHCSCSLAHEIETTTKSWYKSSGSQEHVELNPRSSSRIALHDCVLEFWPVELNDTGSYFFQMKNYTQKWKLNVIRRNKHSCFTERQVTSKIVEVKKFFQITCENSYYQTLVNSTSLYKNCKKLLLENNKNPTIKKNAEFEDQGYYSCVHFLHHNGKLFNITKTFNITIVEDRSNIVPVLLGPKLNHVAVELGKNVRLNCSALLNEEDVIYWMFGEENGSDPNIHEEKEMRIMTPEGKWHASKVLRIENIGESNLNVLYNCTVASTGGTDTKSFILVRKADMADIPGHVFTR

T3: rhIL-1RI/hFc (R&D Systems, Cat. No. 269-1R) (human, UniProt P14778 18-332)
T3 construct: Bought; not shown: human Fc (hFc) of the commercial protein
T3 sequence (looked up): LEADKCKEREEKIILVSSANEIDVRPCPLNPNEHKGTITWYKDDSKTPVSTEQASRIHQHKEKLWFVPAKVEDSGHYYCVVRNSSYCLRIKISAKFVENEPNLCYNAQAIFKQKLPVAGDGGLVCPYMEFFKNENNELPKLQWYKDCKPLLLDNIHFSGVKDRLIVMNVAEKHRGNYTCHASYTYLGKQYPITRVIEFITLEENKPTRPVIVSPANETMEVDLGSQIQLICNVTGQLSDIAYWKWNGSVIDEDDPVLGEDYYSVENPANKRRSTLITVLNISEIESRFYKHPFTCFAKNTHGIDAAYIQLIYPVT

B1: Mab 1G12 (antibody, V domains shown)
VH: QVQLQQPGAELVKPGASVRMSCKTSDYTFTSNWMHWVKQRPGQGLEWIGTIDPSDSYTYYNQKFKGRATLTVDTSSSTAYMQLSSLTSEDSAVYYCTTSGDYDADRYFDVWGAGTTVTVSS
VL: DIVLTQSPASLGVSLGQRATISCRASKSVSTSGDSYMHWYQQKPGQSPKLLIYLASNLESGVPARFSGSGSGTDFTLNIHPVEEEDAATYYCQQSRELPLSFGAGTKLELK
notes: Monoclonal antibody from immunized NMRI mice; detected with anti-mouse IgG1-PE / anti-mouse IgG; also called F20.1G12; monoclonal antibody 1G12
B2: Mab 2D11 (antibody, V domains shown)
VH: B1 VH with R19K, T24A, R67K, Q82H
VL: B1 VL
notes: Monoclonal antibody from immunized NMRI mice; detected with anti-mouse IgG1-PE / anti-mouse IgG; also called F20.2D11

Assays:
[1] = biological target: T1, human IL-18Rα (IL-18R1) on human cells …; experiment: cell-based or functional assay
[2] = biological target: T2, recombinant human IL-18Rα Fc chimera …; experiment: SPR (BIACORE), 37°C, antibody captured, hIL-18Rα hFc chimera in solution; apparent KD, Langmuir 1:1
Description: Coupling: amine coupling Buffer: 1×PBS (10×PBS, Ambion cat. AM9625), pH 7.4, 37° C. […] Association was measured by a hIL-18Rα-injection of 1.5 minutes at 37° C.; dissociation was measured by washing the chip surface with buffer for 10 minutes at 37° C. For calculation of apparent KD and other kinetic parameters the Langmuir 1:1 model was used.

[3] = biological target: T1, human IL-18Rα (IL-18R1) on human cells …; experiment: cell-based or functional assay; remark: listed apart in the source
[4] = biological target: T4, rhIL-15R/hFc (R&D Systems, Cat. No. 147-IR) (human, UniProt Q13261 31-205); experiment: ELISA, hFc fusion protein captured on anti-human Fc
T4 construct: Bought; not shown: human Fc (hFc) of the commercial protein
T4 sequence (Q13261 31-205): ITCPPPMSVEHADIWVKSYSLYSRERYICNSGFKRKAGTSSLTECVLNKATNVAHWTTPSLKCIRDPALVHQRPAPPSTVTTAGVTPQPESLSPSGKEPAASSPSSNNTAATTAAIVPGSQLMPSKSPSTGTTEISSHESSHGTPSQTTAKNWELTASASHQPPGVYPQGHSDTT
Description: (§1) The test was performed on 384-well microtiter plates (MaxiSorp™, Thermo Scientific Nunc, DK, Cat. No. 464718) at RT. After each incubation step, plates were washed 3 times with PBST. At the beginning, plates were coated with 0.5 μg/ml goat anti-human IgG Fc fragment (Jackson 1 mm. Res., US, Cat. No. 109-006-170) for at least 2 hours (h). Thereafter the wells were blocked with PBS supplemented with 0.2% Tween®-20 and 2% BSA (Roche Diagnostics GmbH, DE) for 1 h. 0.2 μg/ml of recombinant human IL-18Rα-Fc fusion protein (R&D Systems, UK, Cat. No. 816-LR) was captured on plate for 1 h. For testing the binding of antibodies to other proteins of the IL-1 receptor family 0.2 μg/ml of the following recombinant human proteins conjugated to human Fc (hFc) were captured: [0194] rhIL-1RI/hFc (R&D Systems, UK, Cat. No. 269-1R) [0195] rhIL-1sRII/hFc (R&D Systems, UK, Cat. No. 263-2R) [0196] rhIL-1R3/hFc (R&D Systems, UK, Cat. No. 676-CP) [0197] rhIL-2Rα/hFc (R&D Systems, UK, Cat. No. 1020-RL) [0198] rhIL-7Rα/hFc (R&D Systems, UK, Cat. No. 306-IR) [0199] rhIL-15R/hFc (R&D Systems, UK, Cat. No. 147-IR) [0200] rhST-2/hFc (R&D Systems, UK, Cat. No. 523-ST)
(§2) After washing the plate, dilutions of purified antibodies in PBS with 0.05% BSA and 0.2% Tween®-20 were incubated with the receptor proteins for 1 h. Binding of antibodies was detected with 1:2000 diluted horseradish peroxidase (HRP)-conjugates of anti-mouse IgG (GE Healthcare, UK, Cat. No. NA9310V). After 1 h the plates were washed 6 times with PBST and developed with freshly prepared BM Blue® POD substrate solution (BM Blue®: 3,3″-5,5″-Tetramethylbenzidine, Roche Diagnostics GmbH, DE, Cat. No. 11484281001) for 30 minutes at RT. Absorbance was measured at 370 nm. The values were corrected for the control without antibody.

[5] = biological target: T2, recombinant human IL-18Rα Fc chimera …; experiment: as above
Description: as §1, §2

[6] = biological target: T3, rhIL-1RI/hFc (R&D Systems, Cat. No. …); experiment: as above
Description: as §1, §2

IL-18 induced IFNγ production in human PBMC, IC50 [ng/ml] [1] | Kd [2] | IL-18 induced IFNγ production by human KG-1 cells, IC50 [pM] [3] | absorbance at 370 nm (corrected for the control without antibody) [4] | absorbance at 370 nm (corrected for the control without antibody) [5] | absorbance at 370 nm (corrected for the control without antibody) [6] | Binder
0.76 ng/mL | 27 pM | 27 pM | 0.04 | 2.43 | 0.01 | B1
1.71 ng/mL | 27 pM | 43 pM | 0.19 | 2.56 | 0.02 | B2
